Experiment: soluble on expression in E. coli; label from the status in PepcDB or PDB records

Sequence | soluble on expression in E. coli
MRNLAIVDLGSNSARMAVSRLHANGTAQEIKRVKEDTRLSEGMGTAHVLQPAAIERTIKALLNFRRLYEKMPNTDVIGITTAAVRMAQNQTEFLNQVKQEVGLDLRVLSGDDEAYYDYLGVANSLVIHDCLILDTGGASCELILVKNGRKQQLISIPFGAVTLSEQFGLDDLVPSASLFRAQMFLRNRLADIWWLSEAVHFPIILLGGANRTLARINRRRQQKLKVEDIHGYRLKTETVFHTFLDLLSRSKKGRQEISGMEYDRADIIVGGMLPLVTLLQMLDSDRVIFSESGVREGIISEHLNQLEHHHHHH | not soluble
GAMDPDLEATLRAIVHSATSLVDARYGAMEVHDRQHRVLHFVYEGIDEETVRRIGHLPKGLGVIGLLIEDPKPLRLDDVSAHPASIGFPPYHPPMRTFLGVPVRVRDESFGTLYLTDKTNGQPFSDDDEVLVQALAAAAGIAVANARLYQQAK | soluble
EIGYYEWAIENDEMHCNSLYKKIFGFSDAHDPTYKEFTSQIFPKDLSVRNNAVQRAILVGGVYNAEYRVRHPNDELRWVKSFGKAIYDEKGKPVKLIGMILD | not soluble
MNVSVERYQRRKYVSQENSPMLYYVRQKSGTVRVMDVEKLADAIEANSSLTAGDVKHAIEAFVEQLRLSLTQGDKVKIDGLGTFHITLCSEGTEKEKDCTVRSIRKVNVRFVADKALHLVNASHTSTRSENNVEFVLASKGDTEGGNAGGGNTGGGGNSGGGGNSGGDEEAPDPTV | not soluble
MHVDPIVEALIIRRKEHGLSREQMANIAGMSVKTYQRIERGESDLKLSQYRSILRSLNLTDLDIALDIRGIEHVTAEDLVTVARLLSPEAQSLLVRLLSLVLEQRSDPNAS | not soluble
MTRTYAMVGTPCQITAATLMDRYTEDFPVELKLGLFCMENFSYTYLKKLAEEEGIDLADVSELRIEKGRLWFHLNDGSKVSVSLERARAAMRKNCSVCMDFTSEQSDISIGSVGSPEGWSTIIIRTERGHELIEKARKAGYIETKPLTERGIRILEKLASGKKEDNLQEIKRRESVARPVLYWRVMPDEEYLEEVTDYQFDDLRSDVIDVGACVLCGACVASCPEDIVSIKDRKPEVEGTCPEGCNACYVACPRTYVPDSIIGHDSAITPLGEYIEILSARAPMFRGQDGGVVTALLTYALREGIIDGALVVDRDQERPWKPLPVLAEEPQDIVKAAGTKYSACPLLKVLKELEHHHHHH | soluble
MMLHAQHMPGQPGTPSLVFLHGFSGDCHEWQPVGEQFHGCSRLYIDLPGHGGSAAIPVDGFADVIRLLRATLISYNILKFWLVGYSLGGRVAMMAACQGIPGLCGLVVEGGHPGLQNEQARAERRLSDGRWAERFRHEPLTEVFHDWYQQPVFASLTAQQRQALTALRSQNNGETLAAMLEATSLAVQPDLREALNALAFPFYYLCGERDSKFRALAQEVAATCHVIRNAGHNAHRENPAGVVDSLAQILRL | not soluble
EGEPIVEYQVKDLLYDQGVRVELHGKDLVSRVGEMTLDKVYYAFSKFFGLDIVTDYLEVPQDIPPRPPALCPGCPHRSSFIDLKKAITMASFKPNETFISG | not soluble
MAFPFDILHLEIIRSTLESEKDRCEAKEKFGTIIDNLNGPADIEKYESLVQKAFLHANAETKLESIGFRVGRQLVEKVSKESPKLVTELEIVKFICKDFWSSVFGKQVDNLRTNHQGVYVVQDGRFTTLRSFPEGDQYVKESGYFLAFPCGLLRGALAGLNIRAIVTPTIESVPSVKFHIQVQPK | not soluble
SNAVYGSEVESKIIEFTIVGADEIIAEKLGISVGDFVYKIIRLRIIHSIPTIMEHTWMPIAVIPGVEASVLEESIYSYIQNKLGLKVGTSVVRVKGIRPDDKEKQFMNLTNQDFLMRVEQVAYLTDGRTFEYSYADHLPETFEFETVITAKSYKEA | soluble
MLEKTLLKIALDLSLSLPKKAHYQRLMLAVNEVMPCDAVALLVLQDDYLVPVAVDGLSPEVLGMRFSPEEHPRLKAILSSRKPIRFDADSSYPDPYDGLLSIDPKRVLDVHDCMGCCLYVEENLVGVLTLDALQVGAFSNVDDITVATLAALAAATIRNANCIAVLEKRNEKALCLTNELVKDAHKAKGDD | not soluble
MSLVEIVNRPYAKAFEAFATARPEVLCLSADLTSSCEVDGFRDRHPEQFLTLGMAEQNMLSFAGGLAMQGFRPFIHTFSVFLYRRPYDQLINSIAYSNRKVRLMGFLPGITTPGGITHQAIEDIAVLRAVPNMTILETGDATEVETVLEVADSIDGPVYVRILRGEVPRLFSTPFEFNKLRTLSEGDDILVVSSGVCTEEALRATGPLAARGVGIHHLHASTLKPFDKDGLLRAARGKKGIVTLENHTIIGGLGSLVSEILAEEGLGIRLKRLGLNDTFAHGASKPYLMKKYGLDAGALVSAIEELVGKNLAIGEEELVEVRLDHVHSAQKAEALEGHHHHHH | not soluble
MVRNLVIDITKKPTQNIPPTNEIIEEAITELNVDELLDRLFEKDESGEVITPSRIAKMLEEKAFEIYKEYEKQVREAYLSAGYSREKLEQSFQQARFSRGGKAFEIIFTKLLNKFGIRYEHDRVIKIYDYITEGEKPAFIIPSVRTFLNDPSSAILITVKRKVRERWREAVGEAQILRNKFGDEINFWFVGFDEEFTIYSAIAMLDNGIDRVYVIDGRYDSLIEEIKRISDPNFNEDKYIQKIRRFSDIFDDIIQFLNKHGNKKRGKQLTLV | soluble
QGMQTKKAFLYVFNTMSDWEYGYLIAELNSGRYFKKDLAPLKVITVGANKEMITTMGGLRIKPDISLDECTLESKDLLILPGGTTWSEEIHQPILERIGQALKIGTIVAAICGATDALANMGYLDTRKHTSNNLEYTKMVCPNYKGEKFYELGPAVSDANLVTASGIAPLEFAMEVLKKIDVFTLDALHSWYNLNKTHKPEYFFQLMNSINK | soluble
MYRQGTNQSVCSDADEFTPEELQEFAQAFKLFDKDGNNTMNIKELGEAMRMLGLNPTEEELLNMVNEYDVDGNGKIDFGEFCKMMKEMNKETDQELIRLAFKVFDKDGNGYITAQEFKHFMTTMGERFSEEEVDEIIREVDKDGDEQIDLDEFVNMVAPIVSDGTKTDPFLEPTASTNPPTK | not soluble
MGSDKIHHHHHHMKLPRFGVEEWLNVHEKNATYDIAGVSIAALSLEELFQLTQQDLNAFFQELGQKKMDYGWIEGSPQFKAEVCKLYKNIQAEQVLQTNGATGANMLALYALIEPEDHVISMYPTYQQLYDIPKSLGAQVDLWQIKEDSKWLPDLDELRQLIRPNTKMICINNAHNPTGAIMDEAYLKELVAIVESCGAYILSDEVYKTFASDKNIPAIVDLYDKGISVDSLSKAYSLPGIRVGWVASNKKVTAVLRDYRDYTMICAGVFDDMLASFALKHRQAIIQRNQEIVVDNLQILQDWLAKEPRAQAILPDHVSTSLIKLNVPMLIETFCLKLLSDYGVLVVPGNRFDIEGHVRLGYCGDTEILKAGLTRLSQCLRQFDEQAKIT | not soluble
MTHQDTIASEDGSDINILLNTVQNAKALVIFAHGAGANMSHEFMNETSRLLNHLGINVLRFNFPFMDKRALTGKKYPPDRMPKLLLCYETVIEYVVDKKLSHQLPLFIGGKSMGSRVAASLVADSDLLKSRLLNHISGVFCIGYPFHPAKKPEKLRLEPLVDANKPVLIVQGDRDTLGNKVEIASYRLAEHCQCVFLEDGDHSLKPRVKSGFTHQAHMQSAVEEIVTFIERVTISS | not soluble
MGKGVAFFSGGKDGLYALYLAEEMGIEVPYLLVLKTSIGLSPHWENLDALKTLAKVMEREILTFDMRRGSKALAEFISSLDVDYLIAGDVYLEDHILWVKSLAEEANVKPLEPLWGRNTRKLAEEMLREGFNWAIIAVDKRKLGKEWLGYTFRSIEDLENFLRANPNVDPLGEVGEFHTVVLNSPLFALNFELKVESIEEDERYWWLRFELREVEKWNLNS | soluble
MSRQPKPARLAGGALALGLLLGLPNPVEAAQDNGMEHSAMDHGAMPGMDHGAASPAPAQPMEHRGMDHGRMPGMSHAARQPPAQAASSQSRTPIPVPTEADRRAAFPPLEGHKVHDSALNSFFLLDQLEYQDADDGSALAWDASGWIGGDINRLWLRSEGERLDGKTEDAEVQALFGHAIGPWWDLVAGVRQDFKPGSPQTWAAFGVQGLALYDFEAEVTAFLGENGQSALRLEGEYDILLTNRLILQPSAEVNLYGRNDPARGIGSGLADSELGLRLRYEIRREFAPYIGVTWNRSYGNSADLARAEGEDDDEARFVAGIRMWFLEHHHHHH | not soluble
GPLGSMSGPVPSRARVYTDVNTHRPREYWDYESHVVEWGNQDDYQLVRKLGRGKYSEVFEAINITNNEKVVVKILKPVKKKKIKREIKILENLRGGPNIITLADIVKDPVSRTPALVFEHVNNTDFKQLYQTLTDYDIRFYMYEILKALDYCHSMGIMHRDVKPHNVMIDHEHRKLRLIDWGLAEFYHPGQEYNVRVASRYFKGPELLVDYQMYDYSLDMWSLGCMLASMIFRKEPFFHGHDNYDQLVRIAKVLGTEDLYDYIDKYNIELDPRFNDILGRHSRKRWERFVHSENQHLVSPEALDFLDKLLRYDHQSRLTAREAMEHPYFYTVVKDQARMG | soluble
EVQLQQSGAELVRPGASVKLSCTASGFNIKDDFMHWVKQRPEQGLEWIGRIDPANDNTKYAPKFQDKATIIADTSSNTAYLQLSSLTSEDTAVYYCARREVYSYYSPLDVWGAGTTVTVPSGS | soluble
MGSDKIHHHHHHAPLTFDETAFREDVKTLASDAFGGRAPLSDGEQKTLDYLTHAFKSMGLKGAFNGEYLQAVPMAKITADQSMVLKVGELSFTSGEDFTARTQRVVPKVELSGSDMVFVGYGINAPEYGWNDYAGIDVRGKTVVLLVNDPGFATQDPKVFKGNAMTYYGRWTYKYEEAARQGAEAVFIVHEDAPAAYGWGVVKNSNTNTKFTLVDGNNNQSQVGVMGWLQYAAAKQILAASGQDIEALKAAAKAPGFKAVPLTVQADLTLSNHIERAESHNVAAILPGNKNADEAVVMHAHWDHLGQIEEEGKTIILNGAVDNATGVAGVLALARHYAALPEAEKPARSMIFSAFTAEETGLIGAQYFAENPPLPTSKLVAFLNIDGMNVGEGVDYILRYGEGVSELETMLSDAAKAQNRQVKADPRPQNGLMFRSDHFALAQQGVPGLLFMSLGDTDPDYIAHKYHKGADDYSPDWQLGGVKQDLKLIEQILSRLANGSEWPKWLEESDFKARRAKDGR | not soluble
MLLDVQRGQLSFTKYSIITVIWLSLSRILNRGQLSLECFEFWQPTSQLLVLDVCLLDAFALEHHHHHH | not soluble
MNSEALDNFEAPRFRPPDEPRMMKNYTTQFSPLDTPPPMNGTPPIAGMHHYLTDPDPSREMMDLPANISNFGRDDASLVLPANLMGGADTSLPNIDRYKMDLPSEIYPNDPMPRGISTPPMNMKFNLGENIGRDVDRGVMNGFGAERQYQDPMIEIEQNLGNIRFESGNEKIKATITKFDEDYYGNEICAQCQAEDAYMDRMRRQAEEERRKYEETMKRAKMYEDLTREKEETFKREEAERNKALRDHVDRVNAEMIEMKKRRPKSPVLENYIFRHESPRSRDVEVRTRKDAYRAELDRQVEEKRLRRIAEFEKNEAIDATSNARAALEFANAREAERKSIEHAKEMARKQLEFQMEMSRVGAPSDKNWLWWAERPDEHGWRDARLKGLKHTNQVERNQTFKQSIGMLEEFKARQAHDDMVMRDNRRAKYDKLRDQLHENSKMLYPLTKTESRPIIVQPDPRVEAAWREAHEKYDRKFAVLQDNAMKSISGAALDGVAHATTSCRRCARCARPMERKTTLFVNRGETILPHQANWHS | not soluble
MKAMHVAQPAVVLASSRGIASFVCEYASPGKATEVRVTVLRQADSQVTEVCAATYMMGNELTFLDDSICTGTSSGNQVNLTIQGLRAMDTGLYICKVELMYPPPYYLGIGNGTQIYVIDPEPSPDSDLVPR | soluble
